Measurements published in article PMC6297349, “The ASCIZ-DYNLL1 axis promotes 53BP1-dependent non-homologous end joining and PARP inhibitor sensitivity” (Nature Communications, 2018).

Molecular target: the molecule itself
Test: SEC; equal concentrations of TALON IMAC eluate fractionated over a Superdex S200 column (Supplementary Fig. 2a)

B1: Smt3-His6-tagged wild type 53BP1 fragment (amino acids 1131–1292) (domain or fragment, UniProt Q12888 1131-1292, looked up)
chain: GRSTNKENPSKALIERPSQNNIGIQTMECSLRVPETVSAATQTIKNVCEQGTSTVDQNFGKQDATVQTERGSGEKPVSAPGDDTESLHSQGEEEFDMPQPPHGHVLHRHMRTIREVRTLVTRVITDVYYVDGTEVERKVTEETEEPIVECQECETEVSPSQT
notes: No cleavage of the tags is described; the IMAC eluate went onto the Superdex S200 column; also called LC8-OD; source: E. coli BL21(DE3), pET-17b, purified (TALON IMAC column)
B1: binds.
